Experiments:
His-tagged human HER3 = biological target: T1, His-tagged human HER3 (human, UniProt P21860 20-643); assay: BLI (Octet QK384), antibody captured on AHC sensors, His-tagged human HER3 in solution, without NRG1
T1 construct: Antigen of the BLI experiments and of the HER2-Fc dimerisation ELISA; also called HER3 His; not shown: His tag
Method: Binding of anti-HER3 antibodies to human HER3 was evaluated by BLI. Briefly, anti-Human IgG Capture (AHC) sensors (ForteBio) were loaded with anti-HER3 IgG antibodies (25 nM). Kinetic measurements were performed in absence or presence of NRG1. NRG1 was used at 1:1 molar ratio with HER3 wherein the complex was allowed to form at RT for 2 h. […] All measurements were performed at 25° C. with agitation at 1000 rpm. Sensorgrams were referenced for buffer effects and then analyzed using the Octet QK384-software (ForteBio). Kinetic responses were globally fitted using a one-site binding model to obtain values for association (Kₒₙ), dissociation (Koff) rate constants and the equilibrium dissociation constant (KD).

[1] = biological target: T2, human HER4 expressed on HEK293 cells (human, UniProt Q15303 26-1308); assay: flow cytometry on HEK293 HER4 overexpressing cells
T2 construct: whole, on cells; also called HEK293 HER4 overexpressing cells; cell-surface expressed HER4
T2 sequence (Q15303 26-1308): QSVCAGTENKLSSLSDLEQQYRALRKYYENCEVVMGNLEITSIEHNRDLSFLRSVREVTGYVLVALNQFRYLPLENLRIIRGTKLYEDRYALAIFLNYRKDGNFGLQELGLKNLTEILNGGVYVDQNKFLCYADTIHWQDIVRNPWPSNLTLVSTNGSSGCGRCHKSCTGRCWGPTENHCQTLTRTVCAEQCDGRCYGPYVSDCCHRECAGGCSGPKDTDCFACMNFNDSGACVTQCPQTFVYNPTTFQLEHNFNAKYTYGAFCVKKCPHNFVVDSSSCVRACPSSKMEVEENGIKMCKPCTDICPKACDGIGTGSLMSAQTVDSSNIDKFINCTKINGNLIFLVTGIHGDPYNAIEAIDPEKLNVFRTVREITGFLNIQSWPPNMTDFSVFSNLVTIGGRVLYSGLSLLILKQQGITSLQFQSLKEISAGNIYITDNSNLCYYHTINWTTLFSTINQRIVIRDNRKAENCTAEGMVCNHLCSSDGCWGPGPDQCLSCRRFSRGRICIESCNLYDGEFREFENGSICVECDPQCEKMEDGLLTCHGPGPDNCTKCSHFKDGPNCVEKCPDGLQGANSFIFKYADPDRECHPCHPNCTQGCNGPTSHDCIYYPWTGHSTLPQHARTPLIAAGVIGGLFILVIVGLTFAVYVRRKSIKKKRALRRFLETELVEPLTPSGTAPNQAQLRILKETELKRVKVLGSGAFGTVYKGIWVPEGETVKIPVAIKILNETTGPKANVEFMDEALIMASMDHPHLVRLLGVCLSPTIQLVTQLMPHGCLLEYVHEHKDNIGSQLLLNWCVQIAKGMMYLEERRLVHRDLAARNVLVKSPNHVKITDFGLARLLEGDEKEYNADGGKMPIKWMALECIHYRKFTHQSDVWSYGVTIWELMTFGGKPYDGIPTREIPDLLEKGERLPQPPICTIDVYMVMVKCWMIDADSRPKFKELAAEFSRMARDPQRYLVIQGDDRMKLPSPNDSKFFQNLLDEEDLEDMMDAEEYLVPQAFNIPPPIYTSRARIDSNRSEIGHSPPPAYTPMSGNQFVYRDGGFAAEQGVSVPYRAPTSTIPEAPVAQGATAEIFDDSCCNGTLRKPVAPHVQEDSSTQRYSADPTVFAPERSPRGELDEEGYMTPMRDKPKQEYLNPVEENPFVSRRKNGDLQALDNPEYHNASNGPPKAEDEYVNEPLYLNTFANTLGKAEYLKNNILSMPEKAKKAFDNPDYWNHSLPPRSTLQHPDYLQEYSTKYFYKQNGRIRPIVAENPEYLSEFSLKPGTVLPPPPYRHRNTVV
Method: Also included was a commercial anti-HER4 antibody (Novus, Cat: FAB11311P). Unstained HEK293 cells were included in the analysis as negative controls.
HEK293 cells were incubated with 10 μg/ml of each antibody for 1 hour at 4° C. Flow cytometry was performed as described above. Cells were contacted with FITC-conjugated anti-FC antibody (Invitrogen, USA) at for 30 min at 4° C.

human HER3 polypeptide [2] = biological target: T3, human HER3 polypeptide (human, UniProt P21860 20-643); assay: ELISA; plate coated with target polypeptide, antibody serially diluted, absorbance 450 nm
T3 construct: Recombinant antigen of the ELISAs; also called human HER3 (Sino Biological Inc.); human antigen HER3
Method: The antibodies were analysed for their ability to bind to human HER3 polypeptide as well as human HER1 (EGFR) and human HER2 (Sino Biological Inc., China).
ELISAs were carried out according to standard protocols. Plates were coated with 0.1 μg/ml of target polypeptide in phosphate-buffered saline (PBS) for 16 h at 4° C. After blocking for 1 h with 1% BSA in Tris buffer saline (TBS) at room temperature, the anti-HER3 antibody was serially diluted with the highest concentration being 10 μg/ml, and added to the plate. Post 1 h incubation at room temperature, plates were washed three times with TBS containing 0.05% Tween 20 (TBS-T) and were then incubated with a HRP-conjugated anti-His antibody (Life Technologies, Inc., USA) for 1 h at room temperature. After washing, plates were developed with colorimetric detection substrate 3,3′,5,5′-tetramethylbenzidine (Turbo-TMB; Pierce, USA) for 10 min. The reaction was stopped with 2M H₂SO₄, and OD was measured at 450 nm.

human HER3 polypeptide [3] = biological target: T3, human HER3 polypeptide; assay: BLI; after 7 days at 40 °C/80% RH
hCD16a = biological target: T4, hCD16a (human, UniProt P08637 17-208, limits assumed); assay: BLI; after 7 days at 40 °C/80% RH
T4 construct: also called human CD16a

[4] = biological target: T5, human HER3 expressed on cells (HEK293 HER3 O/E cells) (human, UniProt P21860 20-1342); assay: flow cytometry on HEK293T HER3 O/E cells, 10 ug antibody as printed, FITC-conjugated anti-Fc secondary
T5 construct: Also used here for HER3 on U2OS cells of the PathHunter kit and on cancer cell lines; also called HEK293 cells transfected with vector encoding human HER3; human HER3-expressing cells
Method: The cells were washed with buffer (PBS with 2 mM EDTA and 0.5% BSA) and resuspended in FITC-conjugated anti-FC antibody (Invitrogen, USA) at 10 μg/ml for 20 min at 4° C. Cells were washed again and resuspended in 200 μL of FACS flow buffer (PBS with 5 mM EDTA) for flow cytometric analysis using MACSQuant 10 (Miltenyi Biotec, Germany). Unstained WT and transfected HEK293 cells were included in the analysis as negative controls. After acquisition, all raw data were analyzed using Flowlogic software. Cells were gated using forward and side scatter profile percentage of positive cells was determined for native and overexpressing cell populations.

Kd (His-tagged human HER3): < 1 pM
koff (His-tagged human HER3): < 1e-07 s⁻¹
kon (His-tagged human HER3): 199000 M⁻¹ s⁻¹
binding result [1]: no binding
EC50 (human HER3 polypeptide [2]): 14.4 pM
Kd (human HER3 polypeptide [3]): < 1 pM
Kd (hCD16a): 302000 pM
% Parent (HER3 positive) [4]: 73.3%
B1: 10D1F.FcA (anti-HER3 clone 10D1_c89 IgG1) (antibody)
heavy: not shown
light: DIQMTQSPSSVSASVGDRVTITCKASQIVGSNVAWYQQKPGKAPEPLIYSASYLYSGVPSRFSGSGSGTDFTLTISSLQPEDFATYYCQQYSSHPLTFGQGTKLEIKRTVAAPSVFIFPPSDEQLKSGTASVVCLLNNFYPREAKVQWKVDNALQSGNSQESVTEQDSKDSTYSLSSTLTLSKADYEKHKVYACEVTHQGLSSPVTKSFNRGEC
notes: also called 10D1F.A; HMBD-001

— patent US20250122303A1 (HUMMINGBIRD BIOSCIENCE PTE, published 2025)
